± gives the uncertainty stated by the source.
Experiment: self-splicing fitness, log relative to wild type (ln ratio); higher = more splicing; Tetrahymena group I intron in knt gene, E. coli kanamycin selection, DiMSum; sequences stand for … in CUCUCU…GGAGGGAAAAGUUAUCAGGCAUGCACCUGGUAGCUAGUCUUUAAACCAAUAGAUUGCAUCGGUUUAAAAGGCAAGACCGUCAAAUUGCGGGAAAGGGGUCAACAGCCGUUCAGUACCAAGUCUCAGGGGAAACUUUGAGAUGGCCUUGCAAAGGGUAUGGUAAUAAGCUGACGGACAUGGUCCUAACCACGCAGCCAAGUCCUAAGUCAACAGAUCUUCUGUUGAUAUGGAUGCAGUUCACAGACUAAAUGUCGGUCGGGGAAGAUGUAUUCUUCUCAUAAGAUAUAGUCGGACCUCUCCUUAAUGGGAGCUAGCGGAUGAAGUGAUGCAACACUGGAGCCGCUGGGAACUAAUUUGUAUGCGAAAGUAUAUUGAUUAGUUUUGGAGUACUCGUGGUCG
Outline: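 A randomised library covering all eight P1ex-region intron nucleotides was built with the intron in the knt kanamycin-resistance gene on pET-22b(+) and held in E. coli BL21(DE3). Cells were grown overnight at 37°C or 30°C on LB agar, with or without 25 μg/mL kanamycin, plus 100 μg/mL carbenicillin, 50 μM IPTG and 0.2% rhamnose, and pooled colonies were amplicon-sequenced on an Illumina HiSeq 2500. DiMSum fitness is the error-weighted combination of wild-type-normalised replicate fold changes, kanamycin versus none.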

Row | Sequence | self-splicing fitness (ln) (30 °C) | self-splicing fitness (ln) (37 °C)
1 | AACCAGCAAUAUUACGCGAG | -1.21 ± 0.063 | -0.492 ± 0.072
2 | GCGGAGCAAUAUUACGUAAC | -1.54 ± 0.34 | 
3 | GGUUAGCAAUAUUACGAGUC | -3 ± 0.39 | -1.16 ± 0.23
4 | UGCUAGCAAUAUUACGGCCC | -1.72 ± 0.23 | -0.878 ± 0.32
5 | UCCGAGCAAUAUUACGCCCU | -2.74 ± 0.31 | 
6 | AGGUAGCAAUAUUACGACAC | -0.582 ± 0.018 | -0.427 ± 0.036
7 | CAGGAGCAAUAUUACGUCGC | -3.25 ± 0.34 | -1.6 ± 0.29
8 | AAAGAGCAAUAUUACGUAAC | -3.77 ± 0.31 | -2.88 ± 0.43
9 | ACAUAGCAAUAUUACGCUCC | -1.62 ± 0.17 | -2.05 ± 0.23
10 | UGCAAGCAAUAUUACGGUGA | -0.55 ± 0.068 | 0.00833 ± 0.086
11 | AAGUAGCAAUAUUACGCGGC |  | 0.207 ± 0.41
12 | CUAUAGCAAUAUUACGGCAG | -1.51 ± 0.13 | -0.425 ± 0.13
13 | GUAAAGCAAUAUUACGCACG | -0.557 ± 0.067 | -0.242 ± 0.093
14 | CGGGAGCAAUAUUACGUUCU | -3.58 ± 0.18 | -1.49 ± 0.19
15 | UUCCAGCAAUAUUACGGGUG | -0.109 ± 0.058 | -0.15 ± 0.076
16 | CCCUAGCAAUAUUACGGCGA | -2.43 ± 0.13 | -2.19 ± 0.17
17 | GUCAAGCAAUAUUACGCGUU | -2.07 ± 0.076 | -0.761 ± 0.097
18 | GAUCAGCAAUAUUACGACCA | -1.08 ± 0.092 | 0.352 ± 0.15
19 | AGUGAGCAAUAUUACGGGAC | -4.1 ± 0.47 | 
20 | UGAAAGCAAUAUUACGAAAU | -3.67 ± 0.2 | -1.95 ± 0.18
21 | GUAAAGCAAUAUUACGUAUG | -4.04 ± 0.25 | -0.559 ± 0.12
22 | CUGGAGCAAUAUUACGAGUU | -2.26 ± 0.13 | -3.51 ± 0.33
23 | AUAGAGCAAUAUUACGGGAG | -4.25 ± 0.24 | -2.26 ± 0.22
24 | AUAGAGCAAUAUUACGUGCA | -0.67 ± 0.069 | -0.162 ± 0.1
25 | GAGCAGCAAUAUUACGUCCC | -0.684 ± 0.11 | -0.465 ± 0.19
26 | AACAAGCAAUAUUACGCUUU | -3.18 ± 0.15 | -2.77 ± 0.18

Row | Sequence | self-splicing fitness (ln) (30 °C) | self-splicing fitness (ln) (37 °C)
27 | GCAGAGCAAUAUUACGGGUG | -2.91 ± 0.22 | -1.82 ± 0.16
28 | UUUAAGCAAUAUUACGCAUU | -2.05 ± 0.17 | -2.63 ± 0.24
29 | UUUUAGCAAUAUUACGUCGU | -3.49 ± 0.15 | -2.81 ± 0.17
30 | CAACAGCAAUAUUACGUGCC | -3.31 ± 0.2 | -1.59 ± 0.15
31 | CAUUAGCAAUAUUACGUGUG | -2.91 ± 0.19 | -3.15 ± 0.19
32 | UACGAGCAAUAUUACGGUCU | -4.06 ± 0.34 | -3.1 ± 0.4
33 | UACAAGCAAUAUUACGCGGU | -3.61 ± 0.16 | -2.61 ± 0.18
34 | GCUUAGCAAUAUUACGGGCG | -1.44 ± 0.082 | -0.621 ± 0.098
35 | AAUCAGCAAUAUUACGCUUC | -1.77 ± 0.069 | -0.398 ± 0.088
36 | UUGCAGCAAUAUUACGUAUU | -2.57 ± 0.14 | -1.43 ± 0.15
37 | CUCAAGCAAUAUUACGUGAA | -0.683 ± 0.077 | -0.629 ± 0.12
38 | ACCAAGCAAUAUUACGGAAG | -3.74 ± 0.17 | -3.14 ± 0.19
39 | UCAUAGCAAUAUUACGGAGU | -3.88 ± 0.34 | -2.86 ± 0.25
40 | UCUCAGCAAUAUUACGAAAA | -1.84 ± 0.26 | -2.59 ± 0.26
41 | GGCGAGCAAUAUUACGGAGU | -3.06 ± 0.4 | -1.68 ± 0.4
42 | UCCAAGCAAUAUUACGAUCC |  | -0.628 ± 0.48
43 | ACUUAGCAAUAUUACGCACC | -1.99 ± 0.23 | 0.826 ± 0.29
44 | UACCAGCAAUAUUACGGUCC | -1.55 ± 0.11 | -0.0163 ± 0.11
45 | GCAAAGCAAUAUUACGACCG | -0.859 ± 0.14 | -1.26 ± 0.25
46 | GACGAGCAAUAUUACGAGAG | -3.77 ± 0.34 | -0.809 ± 0.18
47 | CUCGAGCAAUAUUACGGUUC | -3.14 ± 0.22 | -2.49 ± 0.3
48 | UAAAAGCAAUAUUACGGAAG | -2.03 ± 0.15 | -0.624 ± 0.15
49 | CCGUAGCAAUAUUACGAGCU | -3.28 ± 0.22 | -3.35 ± 0.24
50 | GCUAAGCAAUAUUACGGGGA | -1.74 ± 0.17 | -1.55 ± 0.21
51 | UUGUAGCAAUAUUACGGGGC | -3.56 ± 0.37 | -3.67 ± 0.46
52 | AACCAGCAAUAUUACGUAAC | -2.5 ± 0.094 | -1.15 ± 0.11

Row | Sequence | self-splicing fitness (ln) (30 °C) | self-splicing fitness (ln) (37 °C)
53 | UAAGAGCAAUAUUACGUCUA | -0.273 ± 0.093 | -0.548 ± 0.1
54 | CGCGAGCAAUAUUACGUAAU | -3.36 ± 0.27 | -3.23 ± 0.4
55 | AAUCAGCAAUAUUACGAGAC | -3.64 ± 0.27 | -0.528 ± 0.12
56 | UAAUAGCAAUAUUACGUGAG | -1.76 ± 0.088 | -1.47 ± 0.12
57 | GAUGAGCAAUAUUACGGCAU | -1.71 ± 0.29 | -1.79 ± 0.39
58 | CUUAAGCAAUAUUACGAUGG | -1.17 ± 0.082 | -0.43 ± 0.11
59 | UUAUAGCAAUAUUACGUCAU |  | -2.98 ± 0.37
60 | AGCCAGCAAUAUUACGUUAC | -4.34 ± 0.31 | -1.88 ± 0.21
61 | UGCGAGCAAUAUUACGCCGA |  | -1.26 ± 0.4
62 | GCGCAGCAAUAUUACGGCAU | -0.756 ± 0.075 | 0.684 ± 0.11
63 | UGACAGCAAUAUUACGAUAC | -3.36 ± 0.22 | -1.61 ± 0.19
64 | GUCCAGCAAUAUUACGCUGG | -4.01 ± 0.12 | -3.25 ± 0.11
65 | CCUAAGCAAUAUUACGCGAG | -4.48 ± 0.25 | -3.56 ± 0.23
66 | CACCAGCAAUAUUACGAGAU | -3.87 ± 0.17 | -2.42 ± 0.16
67 | AGACAGCAAUAUUACGGCAG | -3.3 ± 0.15 | -1.09 ± 0.12
68 | GAGUAGCAAUAUUACGAAGU | -2.93 ± 0.18 | -2.1 ± 0.15
69 | ACCCAGCAAUAUUACGGGCA | 0.0145 ± 0.067 | -0.0091 ± 0.077
70 | GCGAAGCAAUAUUACGUAGG | -1.32 ± 0.092 | -1.43 ± 0.13
71 | UCAUAGCAAUAUUACGAGAC | -2.84 ± 0.31 | -2.03 ± 0.34
72 | ACUAAGCAAUAUUACGUAUG | -3.55 ± 0.16 | -1.25 ± 0.14
73 | CGUUAGCAAUAUUACGCGAC | -3.76 ± 0.26 | -1.84 ± 0.17
74 | AUGAAGCAAUAUUACGUGAA | -1.99 ± 0.088 | -0.731 ± 0.12
75 | CUCAAGCAAUAUUACGAGAU | -3.89 ± 0.2 | -0.936 ± 0.12
76 | AAUUAGCAAUAUUACGUUAU | -2.88 ± 0.18 | -1.11 ± 0.12
77 | UGGCAGCAAUAUUACGCCAU | -3.71 ± 0.25 | 

— the supplement of paper PMC7877785
